Data taken from EP1012307B1, “ZYMOGENIC PROTEASE PRECURSORS THAT CAN BE AUTOCATALYTICALLY ACTIVATED AND THEIR USE” (Roche Diagnostics GmbH, priority 1997, dated 1999).
Peptide text beside a SMILES is read from it. * marks the point of attachment. pNA = O=[N+]([O-])c1ccc(N*)cc1; Tos = Cc1ccc(S(=O)(=O)*)cc1

Key:
Assay in all cases: Trypsin activity with Chromozym TH as substrate, kinetic constants kcat and Km
[1] = molecular target: T1, humanes Trypsin I, Trypsinvariante rTRYI-VGR (Aktivierungspeptid ValGlyArg, autokatalytisch aktiviert) (Homo sapiens, UniProt P07477); format: biochemical; settings: Substrat: Chromozym®TH; 25°C, 50 mmol/l Tris-HCl, 150 mmol/l NaCl, 5 mmol/l CaCl2, 0,1% PEG 8000, pH 8,0
T1 construct: kodierend für Trypsin I von Aminosäureposition 24-247; made in house
Description: Das N-terminale native Trypsinogen I Prosegment AlaProPheAspAspAspAspLys wurde durch das Aktivierungspeptid ValGlyArg ersetzt. Das TRYI-VGR Trypsinvariantengen wurde analog wie das TRYI-GPK Trypsinvariantengen mittels PCR-Technik hergestellt.
(§1) Die Aktivitätsbestimmung von Trypsin wurde in einem Volumen von 1 ml in 50 mmol/l Tris-HCl, 150 mmol/l NaCl, 5 mmol/l CaCl2, 0,1% PEG 8000, pH 8,0 und 0,1 mmol/l des chromogenen Substrats Chromozym®TH (Tosyl-Gly-Pro-Arg-4-pNA, Kat.-Nr. 838268, Boehringer Mannheim GmbH, Mannheim, Deutschland) bei 25°C durchgeführt. Die Reaktion wurde durch Zugabe von 1-10 µl Trypsin-haltiger Probe (0,4-4 U/ml, gelöst in 1 mmol/l HCl) gestartet und die Absorptionsänderung/min (ΔA/min) bei 405 nm (ε405 = 9,75 [mmol^-1 x 1 x cm^-1]) bestimmt. 1 Chromozym®TH Unit Trypsin ist definiert als die Menge Enzym, die 1 µmol pNitroanilin (pNA) pro min bei 25°C aus dem chromozymen Substrat freisetzt.
Die FXa Aktivitätsbestimmung wurde mit dem chromogenen Substrat Chromozym® X (0,1 mmol/l, N-Methoxycarbonyl-D-Nle-Gly-Arg-pNA, Boehringer Mannheim GmbH, Mannheim, Kat.-Nr. 789763) in einem Volumen von 1 ml bei 25°C in 50 mmol/l Tris-HCl, 150 mmol/l NaCl, 5 mmol/l CaCl2, 0,1% PEG 8000, pH 8,0, durchgeführt. […]

[2] = substrate: Cc1ccc(S(=O)(=O)NCC(=O)N2CCC[C@H]2C(=O)N[C@@H](CCCNC(=N)N)C(=O)Nc2ccc([N+](=O)[O-])cc2)cc1; format: biochemical, Schweine; settings: other: Substrat: Chromozym®TH, 25°C, 50 mmol/l Tris-HCl, 150 mmol/l NaCl, 5 mmol/l CaCl2, 0,1% PEG 8000, pH 8,0
Description: as §1
(§2) Die FXa Aktivitätsbestimmung wurde mit dem chromogenen Substrat Chromozym® X (0,1 mmol/l, N-Methoxycarbonyl-D-Nle-Gly-Arg-pNA, Boehringer Mannheim GmbH, Mannheim, Kat.-Nr. 789763) in einem Volumen von 1 ml bei 25°C in 50 mmol/l Tris-HCl, 150 mmol/l NaCl, 5 mmol/l CaCl2, 0,1% PEG 8000, pH 8,0, durchgeführt. Die Reaktion wurde durch Zugabe von 1-10 µl rFXa-haltiger Probe (0,4-4 U/ml) gestartet und die Absorptionsänderung/min (ΔA/min) bei 405 nm (ε405 = 9,75 [mmol^-1 x 1 x cm^-1]) gemessen. 1 Unit (U) FXa Aktivität ist definiert als die Menge Enzym, die 1 µmol pNA pro min bei 25°C aus dem chromozymen Substrat freisetzt. Die Aktivität und die kinetischen Konstanten wurden aus der linearen Anfangssteigung gemäß der Michaelis-Menten-Gleichung bestimmt. Die Ergebnisse zeigt Tabelle 1. Tabelle 1

[3] = substrate: Cc1ccc(S(=O)(=O)NCC(=O)N2CCC[C@H]2C(=O)N[C@@H](CCCNC(=N)N)C(=O)Nc2ccc([N+](=O)[O-])cc2)cc1; format: biochemical, human; settings: other: Substrat: Chromozym®TH, 25°C, 50 mmol/l Tris-HCl, 150 mmol/l NaCl, 5 mmol/l CaCl2, 0,1% PEG 8000, pH 8,0
Description: Durch Einführung einer zusätzlichen Disulfidbrücke wurde das humane Trypsin I Isoenzym verändert. Dazu wurde die Aminosäure Pro an Position 132 und die Aminosäure Tyr an Position 233 zu Cys mutiert (Aminosäuresequenz-Nummerierung entsprechend der Publikation von Emi, M. et al. (Gene 41 (1986) 305-310)). Durch diese 2 Punktmutationen (P132C und Y233C) kann sich eine zusätzliche 6-te Disulfidbrücke zwischen den erfindungsgemäß eingeführten Cysteinresten an Position 132 und 233 ausbilden. Zudem wurde die Aminosäure Pro an der Position 133 zu Ala mutiert (P133A).
as §1, §2

Cc1ccc(S(=O)(=O)NCC(=O)N2CCC[C@H]2C(=O)N[C@@H](CCCNC(=N)N)C(=O)Nc2ccc([N+](=O)[O-])cc2)cc1 [Chromozym®TH, Tosyl-Gly-Pro-Arg-4-pNA] (Tos-Gly-Pro-Arg-pNA)
kcat [1]: 95 ± 1 s⁻¹

B1: Schweine Trypsin (Sigma-Aldrich Chemie GmbH, Kat.-Nr. T-7418) (Sus scrofa) (protein)
chain: IVGGYTCAANSIPYQVSLNSGSHFCGGSLINSQWVVSAAHCYKSRIQVRLGEHNIDVLEGNEQFINAAKIITHPNFNGNTLDNDIMLIKLSSPATLNSRVATVSLPRSCAAAGTECLISGWGNTKSSGSSYPSLLQCLKAPVLSDSSCKSSYPGQITGNMICVGFLEGGKDSCQGDSGGPVVCNGQLQGIVSWGYGCAQKNKPGVYTKVCNYVNWIQQTIAAN
notes: purchased Sigma-Aldrich Chemie GmbH T-7418
Km [2]: 8.5 µM
kcat [2]: 97 ± 3 s⁻¹
kcat/Km [2]: 11,4 1/µM/s

B2: humanes Trypsin I, Trypsinvariante rTRYI-GPK-SS (P132C, P133A, Y233C; zusätzliche Disulfidbrücke) (Homo sapiens; P132C/P133A/Y233C) (protein)
chain: IVGGYNCEENSVPYQVSLNSGYHFCGGSLINEQWVVSAGHCYKSRIQVRLGEHNIEVLEGNEQFINAAKIIRHPQYDRKTLNNDIMLIKLSSRAVINARVSTISLPTACAATGTKCLISGWGNTASSGADYPDELQCLDAPVLSQAKCEASYPGKITSNMFCVGFLEGGKDSCQGDSGGPVVCNGQLQGVVSWGDGCAQKNKPGVYTKVCNYVKWIKNTIAANS
notes: kodierend für Trypsin I von Aminosäureposition 24-247; the Lys is residue 23) (N, cleaved yes); made in house
Km [3]: 19 ± 1 µM
kcat [3]: 99 ± 2 s⁻¹
kcat/Km [3]: 5,2 1/µM/s
